Measured values from patent publication US10100120B2, “Antibody which specifically binds to human CRTH2” (KYOWA HAKKO KIRIN CO., LTD, priority 2015, dated 2018).

Experiments:
[1] = biological target: T1, mutated human CRTH2 with amino acid substitution (Homo sapiens, UniProt Q9Y5Y4, G192A); test: Epitope analysis using CHO-S cells which express mutated human CRTH2 with amino acid substitution; assay type: binding; details: mutant G192A; antibody 10 μg/mL; relative to wild-type = 100%
T1 construct: inserting genes encoding various mutants with amino acid substitution obtained by deleting termination codons; expressed in transfected cells; host or cells: CHO-S cells (Lifetechnologies), transient (phmAG1-MNLinker vector)
T1 sequence (Q9Y5Y4 1-395 G192A): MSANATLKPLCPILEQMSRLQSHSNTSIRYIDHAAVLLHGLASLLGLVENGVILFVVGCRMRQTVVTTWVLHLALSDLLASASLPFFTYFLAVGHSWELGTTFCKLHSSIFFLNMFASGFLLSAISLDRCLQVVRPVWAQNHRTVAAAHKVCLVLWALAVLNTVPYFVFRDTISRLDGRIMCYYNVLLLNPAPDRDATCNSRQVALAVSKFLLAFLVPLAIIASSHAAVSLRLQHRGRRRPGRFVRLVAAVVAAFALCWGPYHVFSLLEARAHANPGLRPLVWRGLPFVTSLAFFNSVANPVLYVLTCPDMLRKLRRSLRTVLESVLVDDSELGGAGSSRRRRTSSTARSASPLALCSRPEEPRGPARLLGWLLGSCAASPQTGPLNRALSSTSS
How it was run: (§1)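 CHO-S cells transiently expressing alanine-substituted human CRTH2 extracellular mutants, C-terminally Azami-Green tagged, 24 h post-transfection. Antibodies at 10 μg/mL, 4 °C 1 h, then Alexa647 anti-IgG secondary 4 °C 1 h; flow cytometry on Azami-Green-positive cells. Reactivity = Alexa647 intensity divided by Azami-Green intensity.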

[2] = biological target: T2, mutated human CRTH2 with amino acid substitution (Homo sapiens, UniProt Q9Y5Y4, E15A/L14A/P12A); test: as above; assay type: binding; details: mutant P12A, L14A, and E15A; antibody 10 μg/mL; relative to wild-type = 100%
T2 construct: inserting genes encoding various mutants with amino acid substitution obtained by deleting termination codons; expressed in transfected cells; host or cells: CHO-S cells (Lifetechnologies), transient (phmAG1-MNLinker vector)
T2 sequence (Q9Y5Y4 1-395 P12A/L14A/E15A): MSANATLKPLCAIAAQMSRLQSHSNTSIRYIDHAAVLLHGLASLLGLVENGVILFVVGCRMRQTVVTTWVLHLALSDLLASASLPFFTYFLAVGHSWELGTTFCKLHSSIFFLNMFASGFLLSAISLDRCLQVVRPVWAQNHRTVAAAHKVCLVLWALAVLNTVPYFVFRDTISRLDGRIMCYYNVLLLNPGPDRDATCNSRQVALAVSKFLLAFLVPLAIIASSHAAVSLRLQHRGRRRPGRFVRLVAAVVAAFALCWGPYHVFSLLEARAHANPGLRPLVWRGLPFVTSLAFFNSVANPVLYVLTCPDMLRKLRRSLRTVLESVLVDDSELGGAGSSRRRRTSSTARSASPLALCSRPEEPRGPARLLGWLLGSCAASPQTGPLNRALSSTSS
How it was run: as §1

B1: LV0HV1: humanized Lym2 antibody, VL LV0 (SEQ ID NO: 33), VH HV1 (SEQ ID NO: 51) (antibody, V domains shown)
VH: EVQLVESGGGVVQPGRSLRLSCAASGFTFSNYYMAWVRQAPGKGLEWVATISYDGSSTYYRDSVKGRFTISRDNAKNSLYLQMNSLRAEDTATYYCARHRGYYYSGAGYFDYWGQGTMVTVSS
VL: DIVMTQTPLSLPVTPGESASISCRSSQSLEYSDGYTYLEWYLQKPGQSPQVLIYGVSNRFSGVPDRFSGSGSGTDFTLKISRVEAEDVGVYYCFQATHDPLTFGQGTKLEIK
In the case of B1, the “reactivity against cells expressing mutated human CRTH2” value [1] is reported as “lost” and the “reactivity against cells expressing mutated human CRTH2” value [2] is reported as “lost”.
